Data taken from PMC7689096, “Cyclizing Painkillers: Development of Backbone-Cyclic TAPS Analogs” (Frontiers in Chemistry, 2020).
Several values for one entry are separate records, joined by “and”; a condition that tells them apart may be missing. Equal values may be shown once. Numbered stars: 1 amine (or outer) side, 2 acyl side, 3 side chain; on linkers, the order of the positions; unused ones are H or OH. Bridge positions count the residues as written; N and C are the ends. Square brackets hold non-standard residues; d marks the D form. Primed or numbered codes have the meaning given here. Ends that are not written are not given here. dR(Nα-6-aminohexyl) = N=C(N)NCCC[C@H](C(=O)[*:2])N(CCCCCCN[*:3])[*:1]; dR(Nα-3-aminopropyl) = N=C(N)NCCC[C@H](C(=O)[*:2])N(CCCN[*:3])[*:1]; N(6-aminohexyl)Gly = O=C(CN(CCCCCCN[*:3])[*:1])[*:2]; NGly(3-aminopropyl) = O=C(CN(CCCN[*:3])[*:1])[*:2]; N(2-Aminoethyl)Gly = O=C(CN(CCN[*:3])[*:1])[*:2]; Gly(N-2-aminoethyl)′ = not defined here; CO = O=C([*:1])[*:2]; Nlys = NCCCCNCC(=O)O; Sar = CNCC(=O)O

What was measured:
[1] = target: T1, human recombinant μ (MOP, OPRM1) receptor (Homo sapiens, UniProt P35372); assay: MOP opioid receptor functional antagonism in CHO cells expressing human recombinant μ receptors; format: cell-based; conditions: Between 10^−9-10^−6 M, percent inhibition of control specific agonist response, values lower than 25% not significant
T1 construct: host or cells: CHO cells
Procedure: (§1) Peptides were tested for μ (MOP, OPRM1) and δ (DOP, OPRD2) opioid receptor activation functional agonism and antagonism using CHO cells expressing human recombinant μ receptors and NG-10815 cells which express significant endogenous levels of δ opioid receptors. The cultures were incubated for 10 min at 37°C followed by impedance measurements of CHO cells and cAMP was assayed by the HTRF method using NG-10815 cells, according to CEREP standard assay protocols. The respective reference, non-peptide small molecules were tested concurrently with the TAPS analogs. The agonist compounds were: DPDPE (selective agonist of DOP receptor) and DAMGO (high MOP receptor specificity) and the antagonist compounds were: Naltrindole (selective DOP receptor antagonist) and CTOP (MOP receptor antagonist). […] The results are expressed as a percentage of respective control-specific response. […] These findings indicate that TAPS cyclic peptides are MOP selective full agonists. […] The cyclic TAPS peptide had lower activity than the linear parent TAPS peptide (90 ± 5%) – a finding that can be attributed to their restricted conformation relative to the flexible linear peptide conformation.
(§2) The respective reference, non-peptide small molecules were tested concurrently with the TAPS analogs; Agonist compounds DPDPE ([D-Pen2,D-Pen5]enkephalin), selective agonist of DOP receptor at 2 × 10^−9 M and DAMGO ([D-Ala2, N-MePhe4, Gly-ol] enkephalin), high MOP specificity at 2.5 × 10^−9 M; Antagonist compounds: naltrindole 7-(cyclopropylmethyl)-6,7-dehydro-4,5α-epoxy-3,14-dihydroxy-6,7-2′,3′-indolomorphinan hydrochloride, selective DOP antagonist, 5 × 10^−10 M and CTOP (D-Phe-Cys-Tyr-D-Trp-Orn-Thr-Pen-Thr-NH2), MOP antagonist at 3.4 × 10^−7 M. Depending on the assay volume and solvent tolerance, the stock solutions were diluted to [100×], [333×] or [1,000×] in 100% DMEM solvent, then either added directly or further diluted to [10×] or [5×] in H2O or Hank's balanced salt solution (HBSS) before addition to the assay well (final solvent concentration kept constant). The cultures were incubated for 10 min at 37°C followed by impedance measurements using cellular dielectric spectroscopy of CHO cells and cAMP was assayed by homogeneous time resolved fluorescence (HTRF) method using NG-10815 cells, according to CEREP standard assay protocols (https://euroscreenfast.com/assays/opioid-orl1-camp-fast-0360c; https://euroscreenfast.com/assays/opioid-op1-delta-camp-fast-0379c). The results (mean of three experiments) are expressed as a percent of control specific agonist response [(measured TAPS specific response/control specific agonist response) × 100] and as a percent inhibition of control specific agonist response [100 – (measured TAPS specific response/control specific agonist response) × 100] obtained in the presence of the TAPS compounds. Results showing a stimulation or an inhibition lower than 25% were considered not significant and mostly attributable to variability of the signal around the control level. Results showing a stimulation or an inhibition higher than 50% were considered to represent significant effects of the TAPS compounds.

[2] = target: T1, human recombinant μ (MOP, OPRM1) receptor; assay: MOP opioid receptor functional agonism in CHO cells expressing human recombinant μ receptors; format: cell-based; conditions: At 10^−6 M, percent of control specific agonist response, values lower than 25% not significant
Procedure: as §1
Evaluation of the Agonist Activity of Compounds at the Human μ Receptor in Transfected CHO Cells, Determined by Measuring Their Effects on cAMP modulation Using the HTRF Detection Method
Thereafter, the adenylyl cyclase activator NKH 477 is added at a final concentration of […]. Following 10 min incubation at 37°C, the cells are lysed and the fluorescence acceptor (D2-labeled cAMP) and fluorescence donor (anti-cAMP antibody labeled with europium cryptate) are added. After 60 min at room temperature, the fluorescence transfer is measured at lex = 337 nm and lem = 620 and 665 nm using a microplate reader (Rubystar, BMG). The cAMP concentration is determined by dividing the signal measured at 665 nm by that measured at 620 nm (ratio). The results are expressed as a percent of the control response to 1 μM DAMGO. The standard reference agonist is DAMGO, which is tested in each experiment at several concentrations to generate a concentration-response curve from which its EC50 value is calculated.
as §2, with “Results showing a stimulation or an inhibition lower than 25% were considered not significant and mostly attributable to variability of the signal around the control level. Results showing a stimulation or an inhibition higher than 50% were considered to represent significant effects of the TAPS compounds.” left out

[3] = target: T2, δ (DOP, OPRD2) opioid receptor (Mus musculus, UniProt P32300); assay: DOP opioid receptor functional antagonism in NG-10815 cells; format: cell-based, rat; conditions: Between 10^−9-10^−6 M, percent inhibition of control specific agonist response
T2 construct: NG-10815 cells which express significant endogenous levels of δ opioid receptors; host or cells: NG-10815 (NG108-15) mouse N18TG2 neuroblastoma x rat C6-BU-1 glioma hybrid cells
Procedure: as §1, §2

[4] = target: T2, δ (DOP, OPRD2) opioid receptor; assay: DOP opioid receptor functional agonism in NG-10815 cells; format: cell-based, rat; conditions: At 10^−6 M, percent of control specific agonist response
Procedure: as §1
Evaluation of the Agonist Activity of Compounds at the Rat delta2 Receptor Endogenously Expressed in NG-10815 Cells, Determined by Measuring Their Effects on Impedance Modulation Using the CellKey (CDS) Detection Method
Cells are seeded onto 96-well plate coated with fibronectin at 2 × 10^5 cells/well in HBSS buffer (Invitrogen) + 20 mM HEPES (Invitrogen) with 0.1% BSA and allowed to equilibrate for 60 min at 37°C before the start of the experiment. Plates are placed onto the system and measurements are made at a temperature of 37°C. […] Impedance measurements are monitored for 10 min after ligand addition. The standard reference agonist is DPDPE, which is tested in each experiment at several concentrations to generate a concentration-response curve from which its EC50 value is calculated.
as §2, with “The results (mean of three experiments) are expressed as a percent of control specific agonist response [(measured TAPS specific response/control specific agonist response) × 100] and as a percent inhibition of control specific agonist response [100 – (measured TAPS specific response/control specific agonist response) × 100] obtained in the presence of the TAPS compounds. Results showing a stimulation or an inhibition lower than 25% were considered not significant and mostly attributable to variability of the signal around the control level. Results showing a stimulation or an inhibition higher than 50% were considered to represent significant effects of the TAPS compounds.” left out

[5] = target: human recombinant μ opioid receptor (human) (UniProt P35372)
Sequence of human recombinant μ opioid receptor (human) (P35372 whole entry): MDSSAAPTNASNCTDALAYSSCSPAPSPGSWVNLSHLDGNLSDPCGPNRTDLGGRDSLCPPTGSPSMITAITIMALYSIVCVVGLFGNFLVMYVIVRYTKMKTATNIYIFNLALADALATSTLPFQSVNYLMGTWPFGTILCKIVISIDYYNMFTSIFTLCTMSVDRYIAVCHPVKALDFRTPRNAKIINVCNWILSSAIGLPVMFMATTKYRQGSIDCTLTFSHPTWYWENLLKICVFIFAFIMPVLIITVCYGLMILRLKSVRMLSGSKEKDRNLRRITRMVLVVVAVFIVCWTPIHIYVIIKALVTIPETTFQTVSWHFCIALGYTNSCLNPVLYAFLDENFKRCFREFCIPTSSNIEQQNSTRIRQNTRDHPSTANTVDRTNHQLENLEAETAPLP

T2 sequence (P32300 whole entry): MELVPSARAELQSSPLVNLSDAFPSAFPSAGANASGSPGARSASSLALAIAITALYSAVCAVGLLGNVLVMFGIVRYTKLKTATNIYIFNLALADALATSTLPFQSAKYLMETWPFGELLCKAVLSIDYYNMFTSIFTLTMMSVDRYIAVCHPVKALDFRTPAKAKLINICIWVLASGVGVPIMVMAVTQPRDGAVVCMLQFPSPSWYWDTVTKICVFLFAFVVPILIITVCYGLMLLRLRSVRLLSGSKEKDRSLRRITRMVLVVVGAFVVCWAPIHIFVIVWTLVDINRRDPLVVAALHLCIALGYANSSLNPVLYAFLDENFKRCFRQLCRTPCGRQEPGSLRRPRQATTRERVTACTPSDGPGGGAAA
T1 sequence (P35372 whole entry): as the sequence (P35372 whole entry) above

Row | Molecule | MOP agonist (%) [2] | DOP antagonist (%) [3] [%] | MOP agonist (%) at 10^-6 M: percent of control specific agonist response (DAMGO), CHO cells expressing human recombinant μ receptors; values lower than 25% are not significant [5] [%] | also measured
1 | TAPS c(2-3): backbone-cyclic TAPS analog, urea bridge; n-m alkyl chain lengths on nitrogens of Gly and Arg; ring size 15 (YRF[N(2-Aminoethyl)Gly]-NH2; bridge 2-4 via CO; not fully specified (residue 2); also: urea bridge between the two N-alkyl chains) | 24% | 2 |  | MOP antagonist (%) [1]: 1%
2 | TAPS c(3-6): backbone-cyclic TAPS analog, urea bridge; ring size 19 (YRF[NGly(3-aminopropyl)]-NH2; bridge 2-4 via CO; not fully specified (residue 2); also: urea bridge between the two N-alkyl chains) | 1% | 1 |  | MOP antagonist (%) [1]: 2%
3 | TAPS c(4-3): backbone-cyclic TAPS analog, urea bridge; ring size 17 (YRF[Nlys]-NH2; bridge 2-4 via CO; not fully specified (residue 2); also: urea bridge between the two N-alkyl chains) | 63 ± 5% and 63^** % | 0 |  | DOP agonist (%) [4]: 11%
4 | TAPS c(4-6): backbone-cyclic TAPS analog, urea bridge; ring size 20 (YRF[Nlys]-NH2; bridge 2-4 via CO; not fully specified (residue 2); also: urea bridge between the two N-alkyl chains) | 1% | 3 |  | MOP antagonist (%) [1]: 1%
5 | TAPS c(6-3): backbone-cyclic TAPS analog, urea bridge; ring size 19 (YRF[N(6-aminohexyl)Gly]-NH2; bridge 2-4 via CO; not fully specified (residue 2); also: urea bridge between the two N-alkyl chains) | 75 ± 9% and 75^** % | 8 |  | DOP agonist (%) [4]: 19%
6 | Y[dR(Nα-6-aminohexyl)]F[Gly(N-6-aminohexyl)] (bridge 2-4 via CO; not fully specified) [TAPS c(6-6)] |  |  | 21 | 
7 | Y[dR(Nα-3-aminopropyl)]F[Gly(N-4-aminobutyl)] (bridge 2-4 via CO; not fully specified) [TAPS c(4-3)] |  |  |  | MOP agonist (%) at 10^-6 M: percent of control specific agonist response (DAMGO), CHO cells expressing human recombinant μ receptors [5]: 63%
8 | Y[dR(Nα-3-aminopropyl)]F[Gly(N-2-aminoethyl)′] (bridge 2-4 via CO; not fully specified) [TAPS c(2-3)] |  |  | 24 | 
9 | Y[dR(Nα-6-aminohexyl)]F[Gly(N-4-aminobutyl)] (bridge 2-4 via CO; not fully specified) [TAPS c(4-6)] |  |  | 1 | 
10 | Y[dR]F[Sar] [linear peptide Tyr-D-Arg-Phe-Sar (TAPS)] |  |  |  | MOP agonist (%) at 10^-6 M: percent of control specific agonist response (DAMGO), CHO cells expressing human recombinant μ receptors [5]: 90%
11 | Y[dR(Nα-3-aminopropyl)]F[Gly(N-3-aminopropyl)] (bridge 2-4 via CO; not fully specified) [TAPS c(3-3)] |  |  | 1 | 
12 | Y[dR(Nα-6-aminohexyl)]F[Gly(N-3-aminopropyl)] (bridge 2-4 via CO; not fully specified) [TAPS c(3-6)] |  |  | 1 | 
13 | Y[dR(Nα-6-aminohexyl)]F[Gly(N-2-aminoethyl)′]-NH2 (bridge 2-4 via CO; not fully specified) [TAPS c(2-6)] |  |  |  | MOP agonist (%) at 10^-6 M: percent of control specific agonist response (DAMGO), CHO cells expressing human recombinant μ receptors [5]: 48%
14 | Y[dR(Nα-3-aminopropyl)]F[Gly(N-6-aminohexyl)] (bridge 2-4 via CO; not fully specified) [TAPS c(6-3)] |  |  |  | MOP agonist (%) at 10^-6 M: percent of control specific agonist response (DAMGO), CHO cells expressing human recombinant μ receptors [5]: 75%
